Experimental data: patent US20240366776A1 (Hoffmann-La Roche, published 2024)

T1: biotinylated IL-2 receptor beta gamma heterodimer Fc (IL-2RBG; Acro ILG-H5254) (UniProt P14784 27-239; P31785 23-262, biotinylated)
T1 construct: bought heterodimer
T1 sequence (looked up) 1: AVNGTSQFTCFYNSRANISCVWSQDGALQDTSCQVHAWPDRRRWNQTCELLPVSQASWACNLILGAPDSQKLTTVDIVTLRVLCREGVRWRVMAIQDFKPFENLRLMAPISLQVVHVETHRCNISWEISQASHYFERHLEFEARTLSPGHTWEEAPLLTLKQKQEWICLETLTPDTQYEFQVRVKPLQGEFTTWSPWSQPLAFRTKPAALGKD
T1 sequence (looked up) 2: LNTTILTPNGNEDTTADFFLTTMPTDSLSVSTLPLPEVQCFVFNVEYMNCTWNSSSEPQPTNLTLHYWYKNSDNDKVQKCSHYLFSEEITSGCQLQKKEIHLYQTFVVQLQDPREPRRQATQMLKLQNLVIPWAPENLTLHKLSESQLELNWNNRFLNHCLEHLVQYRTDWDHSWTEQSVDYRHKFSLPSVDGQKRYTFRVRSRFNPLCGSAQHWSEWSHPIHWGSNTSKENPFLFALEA

B1: AF003753 (other)
heavy 1: APASSSTKKTQLQLEHLLLDLQMILNGINNYKNPKLTRMLTAKFAMPKKATELKHLQCLEEELKPLEEVLNGAQSKNFHLRPRDLISNINVIVLELKGSETTFMCEYADETATIVEFLNRWITFAQSIISTLTGGGGSGGGGSGGGGSGGGGSQVQLVQSGAEVKKPGASVKVSCKASGDTFTRYYVHWVRQAPGQGLEWMGIINPSGGYASYAQKFQGRVTMTRDTSTSTVYMELSSLRSEDTAVYYCAAGLFIWGQGTLVTVSSAKTTAPSVYPLAPVCGDTTGSSVTLGCLVKGYFPEPVTLTWNSGSLSSGVHTFPAVLQSDLYTLSSSVTVTSSTWPSQSITCNVAHPASSTKVDKKIEPRGPTIKPCPPCKCPAPNAAGGPSVFIFPPKIKDVLMISLSPIVTCVVVDVSEDDPDVQISWFVNNVEVHTAQTQTHREDYNSTLRVVSALPIQHQDWMSGKEFKCKVNNKDLGAPIERTISKPKGSVRAPQVYVLPPPEEEMTKKQVTLTCMVTDFMPEDIYVEWTNNGKTELNYKNTEPVLDSDGSYFMYSDLRVEKKNWVERNSYSCSVVHEGLHNHHTTESFSRTPGK
heavy 2: QVQLVQSGAEVKKPGASVKVSCKASGDTFTRYYVHWVRQAPGQGLEWMGIINPSGGYASYAQKFQGRVTMTRDTSTSTVYMELSSLRSEDTAVYYCAAGLFIWGQGTLVTVSSAKTTAPSVYPLAPVCGDTTGSSVTLGCLVKGYFPEPVTLTWNSGSLSSGVHTFPAVLQSDLYTLSSSVTVTSSTWPSQSITCNVAHPASSTKVDKKIEPRGPTIKPCPPCKCPAPNAAGGPSVFIFPPKIKDVLMISLSPIVTCVVVDVSEDDPDVQISWFVNNVEVHTAQTQTHREDYNSTLRVVSALPIQHQDWMSGKEFKCKVNNKDLGAPIERTISKPKGSVRAPQVYVLPPPEKEMTKKQVSLTCLVKDFMPEDIYVEWTNNGKTELNYKNTEPVLKSDGSYFMYSKLTVEKKNWVERNSYSCSVVHEGLHNHHTTKSFSRTPGK
light: DIQMTQSPSSLSASVGDRVTITCRASQSIGRWLAWYQQKPGKAPKLLIYSASNLETGVPSRFSGSGSGTDFTLTISSLQPEDFATYYCQQYESFPVTFGPGTKVDIKRADAAPTVSIFPPSSEQLTSGGASVVCFLNNFYPKDINVKWKIDGSERQNGVLNSWTDQDSKDSTYSMSSTLTLTKDEYERHNSYTCEATHKTSTSPIVKSFNRNEC
notes: also called AF3753
B2: AF003951 (other)
heavy 1: APASSSTKKTQLQLEHLLLDLQMILNGINNYKNPKLTRMLTAKFAMPKKATELKHLQCLEEELKPLEEVLNGAQSKNFHLRPRDLISNINVIVLELKGSETTFMCEYADETATIVEFLNRWITFAQSIISTLTGGGGSGGGGSGGGGSGGGGSQVQLVQSGAEVKKPGASVKVSCKASGYTFTDYYMHWVRQAPGQGLEWMGIINPRAGYTSYALKFQGRVTMTRDTSTSTVYMELSSLRSEDTAVYYCTSGWDVWGQGTLVTVSSAKTTAPSVYPLAPVCGDTTGSSVTLGCLVKGYFPEPVTLTWNSGSLSSGVHTFPAVLQSDLYTLSSSVTVTSSTWPSQSITCNVAHPASSTKVDKKIEPRGPTIKPCPPCKCPAPNAAGGPSVFIFPPKIKDVLMISLSPIVTCVVVDVSEDDPDVQISWFVNNVEVHTAQTQTHREDYNSTLRVVSALPIQHQDWMSGKEFKCKVNNKDLGAPIERTISKPKGSVRAPQVYVLPPPEEEMTKKQVTLTCMVTDFMPEDIYVEWTNNGKTELNYKNTEPVLDSDGSYFMYSDLRVEKKNWVERNSYSCSVVHEGLHNHHTTESFSRTPGK
heavy 2: QVQLVQSGAEVKKPGASVKVSCKASGYTFTDYYMHWVRQAPGQGLEWMGIINPRAGYTSYALKFQGRVTMTRDTSTSTVYMELSSLRSEDTAVYYCTSGWDVWGQGTLVTVSSAKTTAPSVYPLAPVCGDTTGSSVTLGCLVKGYFPEPVTLTWNSGSLSSGVHTFPAVLQSDLYTLSSSVTVTSSTWPSQSITCNVAHPASSTKVDKKIEPRGPTIKPCPPCKCPAPNAAGGPSVFIFPPKIKDVLMISLSPIVTCVVVDVSEDDPDVQISWFVNNVEVHTAQTQTHREDYNSTLRVVSALPIQHQDWMSGKEFKCKVNNKDLGAPIERTISKPKGSVRAPQVYVLPPPEKEMTKKQVSLTCLVKDFMPEDIYVEWTNNGKTELNYKNTEPVLKSDGSYFMYSKLTVEKKNWVERNSYSCSVVHEGLHNHHTTKSFSRTPGGGGSGGGSHHHHHH
light: DIQMTQSPSSLSASVGDRVTITCRASQSISTWLAWYQQKPGKAPKLLIYAASSLDSGVPSRFSGSGSGTDFTLTISSLQPEDFATYYCQQSYSFPVTFGQGTKVEIKRADAAPTVSIFPPSSEQLTSGGASVVCFLNNFYPKDINVKWKIDGSERQNGVLNSWTDQDSKDSTYSMSSTLTLTKDEYERHNSYTCEATHKTSTSPIVKSFNRNEC
notes: also called AF3951
B3: AF003952 (other)
heavy 1: APASSSTKKTQLQLEHLLLDLQMILNGINNYKNPKLTRMLTAKFAMPKKATELKHLQCLEEELKPLEEVLNGAQSKNFHLRPRDLISNINVIVLELKGSETTFMCEYADETATIVEFLNRWITFAQSIISTLTGGGGSGGGGSGGGGSGGGGSQVQLVQSGAEVKKPGASVKVSCKASGYTFTRYYMHWVRQAPGQGLEWMGIINPRAGYTSYALKFQGRVTMTRDTSTSTVYMELSSLRSEDTAVYYCTSGWDVWGQGTLVTVSSAKTTAPSVYPLAPVCGDTTGSSVTLGCLVKGYFPEPVTLTWNSGSLSSGVHTFPAVLQSDLYTLSSSVTVTSSTWPSQSITCNVAHPASSTKVDKKIEPRGPTIKPCPPCKCPAPNAAGGPSVFIFPPKIKDVLMISLSPIVTCVVVDVSEDDPDVQISWFVNNVEVHTAQTQTHREDYNSTLRVVSALPIQHQDWMSGKEFKCKVNNKDLGAPIERTISKPKGSVRAPQVYVLPPPEEEMTKKQVTLTCMVTDFMPEDIYVEWTNNGKTELNYKNTEPVLDSDGSYFMYSDLRVEKKNWVERNSYSCSVVHEGLHNHHTTESFSRTPGK
heavy 2: QVQLVQSGAEVKKPGASVKVSCKASGYTFTRYYMHWVRQAPGQGLEWMGIINPRAGYTSYALKFQGRVTMTRDTSTSTVYMELSSLRSEDTAVYYCTSGWDVWGQGTLVTVSSAKTTAPSVYPLAPVCGDTTGSSVTLGCLVKGYFPEPVTLTWNSGSLSSGVHTFPAVLQSDLYTLSSSVTVTSSTWPSQSITCNVAHPASSTKVDKKIEPRGPTIKPCPPCKCPAPNAAGGPSVFIFPPKIKDVLMISLSPIVTCVVVDVSEDDPDVQISWFVNNVEVHTAQTQTHREDYNSTLRVVSALPIQHQDWMSGKEFKCKVNNKDLGAPIERTISKPKGSVRAPQVYVLPPPEKEMTKKQVSLTCLVKDFMPEDIYVEWTNNGKTELNYKNTEPVLKSDGSYFMYSKLTVEKKNWVERNSYSCSVVHEGLHNHHTTKSFSRTPGGGGSGGGSHHHHHH
light: DIQMTQSPSSLSASVGDRVTITCRASQSISTWLAWYQQKPGKAPKLLIYAASSLDSGVPSRFSGSGSGTDFTLTISSLQPEDFATYYCQQSYSFPVTFGQGTKVEIKRADAAPTVSIFPPSSEQLTSGGASVVCFLNNFYPKDINVKWKIDGSERQNGVLNSWTDQDSKDSTYSMSSTLTLTKDEYERHNSYTCEATHKTSTSPIVKSFNRNEC
notes: also called AF3952

What follows are binders tested against T1, biotinylated IL-2 receptor beta gamma … (assay: ELISA, captured complex, biotin-IL-2RBG 10 nM, PD-1 Fc titrated).
B1: binds. B2: binds. B3: binds.
